In article PMC2935574 (The Journal of Cell Biology, 2010):

Target: T1, MIS12 complex (full-length MIS12C) (human, UniProt Q9H081 1-205; Q6P1K2 1-205; Q9H410 1-356; Q96IY1 1-281)
T1 sequence (looked up) 1: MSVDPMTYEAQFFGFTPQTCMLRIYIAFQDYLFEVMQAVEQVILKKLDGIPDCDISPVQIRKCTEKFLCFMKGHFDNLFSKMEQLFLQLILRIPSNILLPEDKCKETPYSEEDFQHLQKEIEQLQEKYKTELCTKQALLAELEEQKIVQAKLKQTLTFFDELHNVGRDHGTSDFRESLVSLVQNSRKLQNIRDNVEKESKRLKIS
T1 sequence (looked up) 2: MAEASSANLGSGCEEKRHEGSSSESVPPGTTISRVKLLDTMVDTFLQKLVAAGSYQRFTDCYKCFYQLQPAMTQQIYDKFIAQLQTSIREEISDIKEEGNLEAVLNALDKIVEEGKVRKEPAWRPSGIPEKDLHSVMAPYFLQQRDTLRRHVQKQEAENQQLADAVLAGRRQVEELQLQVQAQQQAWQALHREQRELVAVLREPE
T1 sequence (looked up) 3: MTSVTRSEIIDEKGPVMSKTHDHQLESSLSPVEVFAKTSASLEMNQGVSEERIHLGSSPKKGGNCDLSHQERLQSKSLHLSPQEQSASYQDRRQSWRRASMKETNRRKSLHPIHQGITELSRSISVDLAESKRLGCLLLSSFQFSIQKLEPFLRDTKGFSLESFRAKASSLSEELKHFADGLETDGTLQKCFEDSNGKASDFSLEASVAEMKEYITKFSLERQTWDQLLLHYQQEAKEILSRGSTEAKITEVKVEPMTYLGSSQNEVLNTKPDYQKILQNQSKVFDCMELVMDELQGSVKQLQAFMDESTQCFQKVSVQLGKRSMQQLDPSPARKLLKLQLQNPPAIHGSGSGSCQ
T1 sequence (looked up) 4: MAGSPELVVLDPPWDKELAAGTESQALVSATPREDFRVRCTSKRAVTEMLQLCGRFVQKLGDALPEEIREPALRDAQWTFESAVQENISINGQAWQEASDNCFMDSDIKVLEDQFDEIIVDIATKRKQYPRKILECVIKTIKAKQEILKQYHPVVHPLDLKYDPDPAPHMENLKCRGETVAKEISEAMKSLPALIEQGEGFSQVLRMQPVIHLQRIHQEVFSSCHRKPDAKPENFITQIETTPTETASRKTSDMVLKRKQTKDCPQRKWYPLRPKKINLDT
Test: pull-down

- binding result: binds
B1: GST-KNL1^1904–2316 (domain or fragment, human, UniProt Q8NG31-2 1904-2316, looked up)
chain: EDLMLSQYVYRPKIQIYREDCEARRQKIEELKLSASNQDKLLVDINKNLWEKMRHCSDKELKAFGIYLNKIKSCFTKMTKVFTHQGKVALYGKLVQSAQNEREKLQIKIDEMDKILKKIDNCLTEMETETKNLEDEEKNNPVEEWDSEMRAAEKELEQLKTEEEELQRNLLELEVQKEQTLAQIDFMQKQRNRTEELLDQLSLSEWDVVEWSDDQAVFTFVYDTIQLTITFEESVVGFPFLDKRYRKIVDVNFQSLLDEDQAPPSSLLVHKLIFQYVEEKESWKKTCTTQHQLPKMLEEFSLVVHHCRLLGEEIEYLKRWGPNYNLMNIDINNNELRLLFSSSAAFAKFEITLFLSAYYPSVPLPSTIQNHVGNTSQDDIATILSKVPLENNYLKNVVKQIYQDLFQDCHFYH
